In paper PMC2138045:
Several values for one entry are separate records, joined by “and”; a condition that tells them apart may be missing. Equal values may be shown once.

Key:
[1] = target: His-tagged kelch BTB domain (his:BTB) (Drosophila); test: dynamic light scattering
[2] = target: His-tagged kelch BTB domain (his:BTB) (Drosophila); test: SEC
[3] = target: His-tagged kelch BTBIVR (his:BTBIVR) (Drosophila); test: SEC

Q: How did the stoichiometry N [1] turn out when “His-tagged kelch BTB domain (his:BTB) (domain or fragment)” was run?
A: Its stoichiometry N is 2.

Q: And the stoichiometry N [2]?
A: Its stoichiometry N is 2 and 4.

Q: Which stoichiometry N [3] does the source give for “His-tagged kelch BTBIVR (his:BTBIVR) (domain or fragment)” here?
A: Its stoichiometry N is 2.
